In the supplement of paper PMC10567573:

B1: RHOBTB1 (parent)
chain: TFGDHHKDRRFAYGRSDVVVLCFS
B2: ADAMTSL2 (parent)
chain: KKPPEESTCFERPCFKWYTSPWSE
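Note: lentivirally expressed fusions sorted by FACS into six bins by GFP to DsRed ratio, PSI derived from sequencing read proportions per bin multiplied by bin number.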

Variants of: B1
Test: protein stability index of a GFP-peptide fusion (GPS, HEK-293T) (PSI 1-6); higher = more stable
Conditions: c terminus: a fixed tail appended
In the case of R15P, the protein stability index is reported as 1.48. For R15Q, the protein stability index was 2.66. Work on R15K yielded a protein stability index of 2.27. In the case of R15I, the protein stability index is reported as 2.55. For R15S, the protein stability index was 2.34. F11L showed a protein stability index of 1.98. F11P showed a protein stability index of 1.89. In the case of S24D, the protein stability index is reported as 1.66. In the case of S24P, the protein stability index is reported as 1.48. Work on S24R yielded a protein stability index of 2.95. S24H gave a protein stability index of 2.98. With S24E the protein stability index was 2.05. For S24T, the protein stability index was 2.16. Work on A12G yielded a protein stability index of 1.57. Variant A12D has a protein stability index of 2.58. With A12V the protein stability index was 1.95. With A12T the protein stability index was 2.65. Y13S showed a protein stability index of 2.66. In the case of Y13M, the protein stability index is reported as 1.55. With Y13Q the protein stability index was 2.78. With Y13A the protein stability index was 1.36. Y13C gave a protein stability index of 2.38. Work on C22Q yielded a protein stability index of 2.2. Variant C22V has a protein stability index of 3.33. C22M gave a protein stability index of 2.88. With C22S the protein stability index was 1.94. In the case of C22N, the protein stability index is reported as 2.23. F2P showed a protein stability index of 3.35. Work on F2A yielded a protein stability index of 1.63. F2L gave a protein stability index of 2.32. With F2N the protein stability index was 2.23. In the case of H5F, the protein stability index is reported as 2.45. Work on H5Q yielded a protein stability index of 2.74. With H5W the protein stability index was 3.81. In the case of H5R, the protein stability index is reported as 2.59. H5L gave a protein stability index of 2.09. H5C showed a protein stability index of 2.27. Work on F23R yielded a protein stability index of 2.38. Work on F23C yielded a protein stability index of 2.41. Work on F23N yielded a protein stability index of 3.08. F23K gave a protein stability index of 2.25. Work on F23W yielded a protein stability index of 1.81. Work on F23S yielded a protein stability index of 1.66. R9H showed a protein stability index of 3.56. R9K showed a protein stability index of 1.97. R9I showed a protein stability index of 3.77. In the case of R9S, the protein stability index is reported as 1.86. In the case of G14H, the protein stability index is reported as 1.85. For G14I, the protein stability index was 2.49. G14K gave a protein stability index of 2.61. Work on G14Q yielded a protein stability index of 3.11. Work on D17Q yielded a protein stability index of 2.43. Variant D17K has a protein stability index of 1.63. Work on D17R yielded a protein stability index of 1.79. In the case of S16L, the protein stability index is reported as 2.15. For S16E, the protein stability index was 2.07. Variant S16N has a protein stability index of 2.38. Work on S16H yielded a protein stability index of 2.91. S16W gave a protein stability index of 2.29. Work on K7L yielded a protein stability index of 1.46. Work on K7N yielded a protein stability index of 3.44. Variant K7W has a protein stability index of 3.28. Work on K7S yielded a protein stability index of 3.12. K7A gave a protein stability index of 1.53. K7F gave a protein stability index of 3.68. Variant V18A has a protein stability index of 1.74. With V18G the protein stability index was 1.68. V18T showed a protein stability index of 1.54. With V18K the protein stability index was 3.01. With V18Q the protein stability index was 1.72. Variant V18S has a protein stability index of 1.46. V18E showed a protein stability index of 2.19. With V18I the protein stability index was 1.42. V18D gave a protein stability index of 2.03. Work on L21Q yielded a protein stability index of 2.4. In the case of L21P, the protein stability index is reported as 2.56. For L21D, the protein stability index was 2.68. L21R gave a protein stability index of 1.96. L21W showed a protein stability index of 2.3. Work on L21I yielded a protein stability index of 1.49. Variant L21N has a protein stability index of 2.44. Work on L21S yielded a protein stability index of 2.15. G3F gave a protein stability index of 1.39. In the case of G3K, the protein stability index is reported as 1.74. Work on T1F yielded a protein stability index of 4.17. Variant T1N has a protein stability index of 1.89. T1L showed a protein stability index of 2.59. T1A showed a protein stability index of 2.71. R10D showed a protein stability index of 2.03. R10K showed a protein stability index of 2.21. Work on R10P yielded a protein stability index of 3.19. Variant R10A has a protein stability index of 2.32. R10G showed a protein stability index of 4.76. D8S showed a protein stability index of 2.76. Variant D8Y has a protein stability index of 4.4. D8Q showed a protein stability index of 4.86. D8H showed a protein stability index of 2.82. In the case of D8E, the protein stability index is reported as 2.77. H6S showed a protein stability index of 2.21. For H6F, the protein stability index was 2.33. Variant V20N has a protein stability index of 2.56. Work on V20S yielded a protein stability index of 1.95. V20T showed a protein stability index of 1.68. In the case of V20H, the protein stability index is reported as 1.62. V20L showed a protein stability index of 2.42. For V20E, the protein stability index was 2.7. Work on V20C yielded a protein stability index of 1.51. Work on V20Y yielded a protein stability index of 1.75. Variant D4K has a protein stability index of 2.06. D4N gave a protein stability index of 2.15. In the case of D4Y, the protein stability index is reported as 3.19. For D4H, the protein stability index was 1.51. Work on D4L yielded a protein stability index of 3.29. V19D showed a protein stability index of 2.93. Work on V19Y yielded a protein stability index of 2.45. In the case of V19A, the protein stability index is reported as 2.23. V19W showed a protein stability index of 1.37. Variant V19L has a protein stability index of 2.82. Work on V19N yielded a protein stability index of 2.28. Variant V19S has a protein stability index of 1.87. V19R showed a protein stability index of 1.89.

Variants of: B2
Test: as above
Conditions: c terminus: a fixed tail appended
For E24D, the protein stability index was 2.76. E24Q showed a protein stability index of 2.37. For E24F, the protein stability index was 2.27. Work on E24W yielded a protein stability index of 2.09. In the case of E24G, the protein stability index is reported as 2.27. In the case of E24R, the protein stability index is reported as 1.83. E24M showed a protein stability index of 1.68. For E24Y, the protein stability index was 2.11. For E24S, the protein stability index was 2.07. For E24L, the protein stability index was 1.72. In the case of E24N, the protein stability index is reported as 1.6. Variant E24P has a protein stability index of 2.4. Variant E24H has a protein stability index of 2.04. For E24K, the protein stability index was 1.82. Work on E24T yielded a protein stability index of 1.97. With E24C the protein stability index was 2.22. E24A gave a protein stability index of 2.06. With E24V the protein stability index was 1.83. Variant E24I has a protein stability index of 1.73. Work on S23D yielded a protein stability index of 2.48. In the case of S23A, the protein stability index is reported as 1.74. With S23G the protein stability index was 1.91. S23W gave a protein stability index of 2.19. In the case of S23R, the protein stability index is reported as 2.22. S23Q showed a protein stability index of 2.47. For S23P, the protein stability index was 2.6. S23V gave a protein stability index of 2.23. S23T gave a protein stability index of 1.87. S23I gave a protein stability index of 2.6. S23L gave a protein stability index of 2.34. In the case of S23K, the protein stability index is reported as 2.53. In the case of S23Y, the protein stability index is reported as 2.35. Variant S23H has a protein stability index of 2.55. S23N showed a protein stability index of 2.5. Work on S23C yielded a protein stability index of 2.23. Work on S23E yielded a protein stability index of 3.02. Variant S23M has a protein stability index of 2.04. Work on S23F yielded a protein stability index of 1.69. W22T showed a protein stability index of 3.97. In the case of W22S, the protein stability index is reported as 3.61. Variant W22Q has a protein stability index of 3.82. W22N gave a protein stability index of 3.28. Work on W22R yielded a protein stability index of 2.95. W22Y showed a protein stability index of 3.05. For W22P, the protein stability index was 4. For W22V, the protein stability index was 3.27.
